In paper PMC6895277:
Where two headings read alike, the source gives them in different places.

Assays:
[1] = test system: T1, VEGF165 (human), P15692-4; assay: SPR; conditions: biotin-dT at T54, SPR: 1x PBS (1 mM KH2PO4, 3 mM Na2HPO4, 155 mM NaCl; 205 mM NaCl for IFNγ), pH 7.4, 0.05% Nonidet P-40, 25°C, EMSA: 1x PBS, 0.05% NP-40, 25°C, 25 nM DNA, 50 nM …
T1 sequence: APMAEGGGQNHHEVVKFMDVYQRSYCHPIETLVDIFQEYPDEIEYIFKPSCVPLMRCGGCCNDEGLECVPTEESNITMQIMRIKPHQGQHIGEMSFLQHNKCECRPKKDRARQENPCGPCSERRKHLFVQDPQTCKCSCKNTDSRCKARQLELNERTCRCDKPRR

IFNγ (human) [2] = molecular target: T2, IFNγ (human) (UniProt P01579); assay: SPR; conditions: biotin-dT at T53, SPR: 1x PBS (1 mM KH2PO4, 3 mM Na2HPO4, 155 mM NaCl; 205 mM NaCl for IFNγ), pH 7.4, 0.05% Nonidet P-40, 25°C, EMSA: 1x PBS, 0.05% NP-40, 25°C, 25 nM DNA, 50 nM …
T2 sequence: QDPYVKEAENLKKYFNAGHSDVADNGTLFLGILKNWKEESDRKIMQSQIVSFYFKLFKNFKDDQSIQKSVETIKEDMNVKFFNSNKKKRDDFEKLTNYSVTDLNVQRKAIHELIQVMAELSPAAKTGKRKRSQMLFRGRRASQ

IFNγ (human) [3] = molecular target: T2, IFNγ (human); conditions: N28 and N39 = Ds; biotin-dT at T53; SPR: 1x PBS (1 mM KH2PO4, 3 mM Na2HPO4, 155 mM NaCl; 205 mM NaCl for IFNγ), pH 7.4, 0.05% Nonidet P-40, 25°C; EMSA: 1x PBS, 0.05% NP-40, 25°C, 25 nM DNA, 50 nM …; cited from earlier work
[4] = test system: T1, VEGF165 (human), P15692-4; conditions: N25 and N34 = Ds (7-(2-thienyl)imidazo[4,5-b]pyridine); biotin-dT at T54; SPR: 1x PBS (1 mM KH2PO4, 3 mM Na2HPO4, 155 mM NaCl; 205 mM NaCl for IFNγ), pH 7.4, 0.05% Nonidet P-40, 25°C; EMSA: 1x PBS, 0.05% NP-40, 25°C, 25 nM DNA, 50 nM …; cited from earlier work

“GCGGTAAGCCGCGTCCGAAGGGGCATGCGGCGANCCCGAATGGGTCCGCCGCGTAGCG [V-Apt2 (AD)]” gave a Kd ([1]; N34 = Ds) of 2 pM.

“CCCGCCCGGGTCCGCGAAGCGGTAGGTATGGGCTAGGCAGCTGGCGGGCGCGTAGCG [I-Apt4 (AA)]” gave a Kd (IFNγ (human) [2]) of 16000 pM.

With “GCGGTAAGCCGCGTCCGAAGGGGCNTGCGGCGAACCCGAATGGGTCCGCCGCGTAGCG [V-Apt3 (DA)]” the Kd ([1]; N25 = Ds) was 58 pM.

In the case of “CCCGCCCGGGTCCGCGAAGCGGTAGGTNTGGGCTAGGCNGCTGGCGGGCGCGTAGCG [I-Apt1 (DD)]”, the Kd (IFNγ (human) [3]) is given as 33 pM and the Kd (IFNγ (human) [2]; N28 and N39 = Ds) is given as 13 pM.

Sequence “GCGGTAAGCCGCGTCCGAAGGGGCATGCGGCGAACCCGAATGGGTCCGCCGCGTAGCG [V-Apt4 (AA)]” has a Kd [1] of 160 pM.

In the case of “GCGGTAAGCCGCGTCCGAAGGGGCNTGCGGCGANCCCGAATGGGTCCGCCGCGTAGCG [V-Apt1 (DD)]”, the Kd [4] is given as 1 pM and the Kd ([1]; N25 and N34 = Ds (7-(2-thienyl)imidazo[4,5-b]pyridine)) is given as 1.6 pM.
